Patent US20120220540A1, “SYNBODIES TO AKT1” (ARIZONA BOARD OF REGENTS FOR AND ON BEHALF OF ARIZONA STATE …, priority 2009, published 2012)
One block for each molecule: values may come before it. Square brackets hold non-standard residues; d marks the D form. Ends that are not written are not given here. * marks the point of attachment. Biotin = O=C1N[C@H]2[C@H](CS[C@H]2CCCCC(=O)*)N1; Oct = octanoic acid spacer; oct = octanoic acid spacer; StBu = CC(C)(C)S*

Assays:
AKT1 [1] = molecular target: AKT1 (Homo sapiens, UniProt P31749); experiment: KD of synbody variants (Tables 2 and 4); format: binding; parameters: key to KD (nM): n.b. = no binding
Experimental: Selection of screening of amino acid variants has been described above. Variants including modifications of conjugation chemistry, linker, spacers or adjunct moieties can be screened for retention of binding to AKT1. In some methods, either the AKT1 or the synbody is immobilized. Optionally binding of a variant is tested in competition with the lead AKT1 synbody discussed above. In one format, AKT1 is immobilized to a support and synbody variants are tested for binding by surface plasmon resonance.
The following synbodies have the same peptides as the lead synbody and are synthesized off of a lysine core but include the addition of different functional groups synthesized between the C-terminus of the peptide and the amine groups of the lysine scaffold (Table 2). Synbodies were conjugated with either a C-terminal cysteine protected against disulfide formation using a sulfo-tert-butyl group, or with different biotin-conjugated lysines where the spacer between the lysine and the backbone varied. For example, in synbody 5 the biotin was attached to the amino group of the side chain, synbody 6 used a caproic acid spacer, while synbody 7 used an eleven-unit polyethylene glycol spacer.
The following mutant forms of the lead peptide have been made in which either one or more amino acids are substituted or the orientation of the peptides on the linker is reversed (Table 4).

AKT2 [2] = molecular target: AKT2 (Homo sapiens, UniProt P31751); experiment: Immunoprecipitation of purified AKT2 from cell lysate with synbody (Western blot); format: binding; settings: immunoprecipitate of purified 250 ng AKT2 from 500 mg of cell lysate
Experimental: (§1) The synbody was tested for binding to AKT1 and in some experiments, AKT2 and AKT3.

AKT3 [3] = molecular target: AKT3 (Homo sapiens, UniProt Q9Y243); experiment: Immunoprecipitation of purified AKT3 from cell lysate with synbody (Western blot); format: binding; settings: immunoprecipitate of purified 250 ng AKT3 from 500 mg of cell lysate
Experimental: as §1

AKT1 [4] = molecular target: T1, AKT1 (human, UniProt P31749 1-480); experiment: method not stated (Table 2)
T1 construct: also called human AKT1; AKT1_HUMAN

AKT1 [5] = molecular target: T1, AKT1; experiment: method not stated (Table 4)
AKT2 [6] = molecular target: AKT2 (human, UniProt P31751 1-481); experiment: immunoprecipitation of 250 ng purified AKT2 from cell lysate with the synbody, Western blot
Experimental: as §1

AKT1 [7] = molecular target: T1, AKT1; experiment: pull-down of S35-labeled AKT1 with synbody immobilized via biotin on magnetic beads, 1:1 fit; pull-down of S35-labeled AKT1, synbody on magnetic bead via biotin
Experimental: as §1

AKT1 [8] = molecular target: T1, AKT1; experiment: SPR, 12.5 and 6.25 nM synbody injected over AKT1 surface, 1:1 kinetic fit; SPR, synbody injected over AKT1 surface, 1:1 kinetic fit
Experimental: as §1

AKT3 [9] = molecular target: AKT3 (human, UniProt Q9Y243 1-479, limits assumed); experiment: immunoprecipitation of 250 ng purified AKT3 from cell lysate with the synbody, Western blot
Experimental: as §1

AKT1 [10] = molecular target: T1, AKT1; experiment: SPR, synbody at 12.5 and 6.25 nM injected over immobilized AKT1, 1:1 kinetic fit
Experimental: as §1

[11] = Table 2, synbodies constructed from a lysine scaffold

AKT1 (Homo sapiens, UniProt P31749), sequence (P31749 whole entry): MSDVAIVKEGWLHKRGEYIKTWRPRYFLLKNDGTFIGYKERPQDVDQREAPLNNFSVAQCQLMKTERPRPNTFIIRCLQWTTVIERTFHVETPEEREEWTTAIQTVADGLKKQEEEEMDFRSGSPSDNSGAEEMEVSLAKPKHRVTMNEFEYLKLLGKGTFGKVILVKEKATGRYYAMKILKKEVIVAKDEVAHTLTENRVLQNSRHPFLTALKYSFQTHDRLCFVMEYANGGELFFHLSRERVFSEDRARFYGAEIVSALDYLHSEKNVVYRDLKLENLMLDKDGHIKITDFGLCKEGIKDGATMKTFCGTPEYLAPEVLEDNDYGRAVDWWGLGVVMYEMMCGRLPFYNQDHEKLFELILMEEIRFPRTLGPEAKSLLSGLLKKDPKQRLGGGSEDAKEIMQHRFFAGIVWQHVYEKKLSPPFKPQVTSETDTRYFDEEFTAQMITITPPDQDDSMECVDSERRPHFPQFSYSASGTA
T1 sequence (P31749 whole entry): as above
AKT3 (Homo sapiens, UniProt Q9Y243), sequence (Q9Y243 whole entry): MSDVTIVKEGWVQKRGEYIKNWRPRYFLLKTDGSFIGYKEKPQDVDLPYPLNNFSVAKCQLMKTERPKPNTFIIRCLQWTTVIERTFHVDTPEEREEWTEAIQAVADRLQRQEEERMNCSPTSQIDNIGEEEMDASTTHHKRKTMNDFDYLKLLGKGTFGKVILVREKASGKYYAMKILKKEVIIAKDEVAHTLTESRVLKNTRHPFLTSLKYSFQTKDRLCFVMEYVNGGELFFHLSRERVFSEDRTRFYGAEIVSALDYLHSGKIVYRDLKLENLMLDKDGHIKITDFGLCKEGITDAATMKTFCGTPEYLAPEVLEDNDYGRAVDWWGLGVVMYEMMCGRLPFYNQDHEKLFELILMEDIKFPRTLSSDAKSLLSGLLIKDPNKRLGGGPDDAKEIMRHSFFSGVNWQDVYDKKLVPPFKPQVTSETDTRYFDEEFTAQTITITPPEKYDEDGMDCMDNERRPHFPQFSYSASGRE
AKT3 (human, UniProt Q9Y243 1-479, limits assumed), sequence (Q9Y243 whole entry): as above
AKT2 (Homo sapiens, UniProt P31751), sequence (P31751 whole entry): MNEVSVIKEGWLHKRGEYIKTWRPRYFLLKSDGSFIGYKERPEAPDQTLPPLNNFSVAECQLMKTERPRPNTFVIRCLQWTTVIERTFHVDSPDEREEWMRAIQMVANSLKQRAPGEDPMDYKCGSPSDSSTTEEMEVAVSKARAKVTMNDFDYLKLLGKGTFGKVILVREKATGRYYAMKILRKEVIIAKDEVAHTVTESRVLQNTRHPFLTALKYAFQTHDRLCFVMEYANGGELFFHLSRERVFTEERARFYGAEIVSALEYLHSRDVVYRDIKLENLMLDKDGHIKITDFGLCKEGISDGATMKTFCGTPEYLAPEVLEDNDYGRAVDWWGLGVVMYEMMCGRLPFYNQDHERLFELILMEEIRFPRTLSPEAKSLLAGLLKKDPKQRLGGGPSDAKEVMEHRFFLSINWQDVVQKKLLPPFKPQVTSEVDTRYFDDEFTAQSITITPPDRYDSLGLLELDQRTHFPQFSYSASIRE
AKT2 (human, UniProt P31751 1-481), sequence (P31751 whole entry): as above

Kd (AKT1 [1]; [11]): 4 nM
Molecule: CC[C@H](C)[C@H](NC(=O)[C@H](Cc1c[nH]cn1)NC(=O)[C@H](C)NC(=O)[C@H](Cc1c[nH]c2ccccc12)NC(=O)CNC(=O)[C@H](CCCNC(=N)N)NC(=O)[C@@H](N)Cc1ccccc1)C(=O)N[C@@H](Cc1ccccc1)C(=O)N[C@@H](Cc1ccccc1)C(=O)NCC(=O)N1CCC[C@H]1C(=O)N[C@@H](Cc1c[nH]cn1)C(=O)N[C@H](C(=O)N[C@H](C(=O)N[C@@H](Cc1ccc(O)cc1)C(=O)N[C@@H](CCCNC(=N)N)C(=O)NCC(=O)NCC(=O)N[C@@H](CO)C(=O)NCC(=O)NCCCC[C@H](NC(=O)CNC(=O)[C@H](CO)NC(=O)CNC(=O)[C@H](Cc1ccc(O)cc1)NC(=O)[C@H](CCCNC(=N)N)NC(=O)[C@H](CC(N)=O)NC(=O)[C@H](Cc1ccc(O)cc1)NC(=O)[C@H](C)NC(=O)[C@H](Cc1c[nH]cn1)NC(=O)[C@H](CCCNC(=N)N)NC(=O)[C@@H](NC(=O)[C@H](CCC(N)=O)NC(=O)[C@H](CCCNC(=N)N)NC(=O)[C@H](CCC(N)=O)NC(=O)[C@@H]1CCCN1C(=O)[C@@H](NC(=O)[C@@H](NC(=O)[C@H](CCCCN)NC(=O)[C@H](Cc1c[nH]cn1)NC(=O)[C@H](C)N)C(C)C)C(C)C)[C@@H](C)CC)C(=O)N[C@@H](CSSC(C)(C)C)C(N)=O)[C@@H](C)CC)C(C)C [Akt26-23KC]

cross-reactivity with AKT2 (AKT2 [2]): little cross-reactivity
cross-reactivity with AKT3 (AKT3 [3]): little cross-reactivity
Molecule: CC[C@H](C)[C@H](NC(=O)[C@H](Cc1c[nH]cn1)NC(=O)[C@H](C)NC(=O)[C@H](Cc1c[nH]c2ccccc12)NC(=O)CNC(=O)[C@H](CCCNC(=N)N)NC(=O)[C@@H](N)Cc1ccccc1)C(=O)N[C@@H](Cc1ccccc1)C(=O)N[C@@H](Cc1ccccc1)C(=O)NCC(=O)N1CCC[C@H]1C(=O)N[C@@H](Cc1c[nH]cn1)C(=O)N[C@H](C(=O)N[C@H](C(=O)N[C@@H](Cc1ccc(O)cc1)C(=O)N[C@@H](CCCNC(=N)N)C(=O)NCC(=O)NCC(=O)N[C@@H](CO)C(=O)NCC(=O)NCCCC[C@H](NC(=O)CNC(=O)[C@H](CO)NC(=O)CNC(=O)[C@H](Cc1ccc(O)cc1)NC(=O)[C@H](CCCNC(=N)N)NC(=O)[C@H](CC(N)=O)NC(=O)[C@H](Cc1ccc(O)cc1)NC(=O)[C@H](C)NC(=O)[C@H](Cc1c[nH]cn1)NC(=O)[C@H](CCCNC(=N)N)NC(=O)[C@@H](NC(=O)[C@H](CCC(N)=O)NC(=O)[C@H](CCCNC(=N)N)NC(=O)[C@H](CCC(N)=O)NC(=O)[C@@H]1CCCN1C(=O)[C@@H](NC(=O)[C@@H](NC(=O)[C@H](CCCCN)NC(=O)[C@H](Cc1c[nH]cn1)NC(=O)[C@H](C)N)C(C)C)C(C)C)[C@@H](C)CC)C(=O)N[C@@H](CCCCNC(=O)CCCC[C@@H]1SC[C@@H]2NC(=O)N[C@@H]21)C(N)=O)[C@@H](C)CC)C(C)C [lead synbody]

KD (nM) (AKT1 [1]; [11]): n.b.
Molecule: AHKVVPQRQIRHAYNRYGSG(oct)KCFRGWAHIFFGPHVIYRGGSG(oct) (AHKVVPQRQIRHAYNRYGSG[oct]KCFRGWAHIFFGPHVIYRGGSG-oct; not fully specified; printed as AHKVVPQRQIRHAYNRYGSG(oct)KCFRGWAHIFFGPHVIYRGGSG(oct); numbers in words are those of the source; also: branched on Lys21 side chain (linear writing)) [Akt26-(Oct)-23(Oct)KC]

KD (nM) (AKT1 [1]; [11]): n.b.
Molecule: AHKVVPQRQIRHAYNRYGSGKCFRGWAHIFFGPHVIYRGGSG(oct) (AHKVVPQRQIRHAYNRYGSGKCFRGWAHIFFGPHVIYRGGSG-oct; not fully specified; printed as AHKVVPQRQIRHAYNRYGSGKCFRGWAHIFFGPHVIYRGGSG(oct); also: branched on Lys21 side chain (linear writing)) [Akt26-23(Oct)KC]

KD (nM) (AKT1 [1]; Table 4, synbodies constructed from mutant peptides on lysine scaffold): n.b.
Molecule: AWKVVPQRQIRHAYNRYGSGKCFRGWAHIFFGPHVIYRGGSG [m3-Akt26-23 KC]

Kd (AKT1 [4]): 3 nM
B1: Akt26-23(hex)KC (designed binder)
chain 1: AHKVVPQRQIRHAYNRYGSGKC(StBu)
chain 2: FRGWAHIFFGPHVIYRGGSG
modifications: not fully specified (C-terminus); also: linker at chain A 21 to a chain's C-terminus via hex
notes: Branched molecule

Kd (AKT1 [4]): 6 nM
B2: Akt26(Oct)-23KC (designed binder)
chain 1: AHKVVPQRQIRHAYNRYGSG[Oct]KC(StBu)
chain 2: FRGWAHIFFGPHVIYRGGSG
modifications: numbers in words are those of the source; also: bond at chain A 21 to a chain's C-terminus
notes: Branched molecule; They shift if the listing holds a placeholder for the spacer

Kd (AKT1 [4]): 4 nM
B3: Akt26-23KKbiotin (designed binder)
chain 1: AHKVVPQRQIRHAYNRYGSGKK(Biotin)
chain 2: FRGWAHIFFGPHVIYRGGSG
modifications: also: bond at chain A 21 to a chain's C-terminus
notes: I split it into two chains; The name runs over rows r11 and r12; also called synbody 5

Kd (AKT1 [5]): 5 nM
B4: m4-Akt26-23 KC (designed binder)
chain 1: AHKVVPQRWIRHAYNRYGSGKC
chain 2: FRGWAHIFFGPHVIYRGGSG
modifications: also: bond at chain A 21 to a chain's C-terminus
notes: Mutant peptide on a lysine scaffold; Branched molecule, which I split into two chains

Kd (AKT1 [5]): 15 nM
B5: m1-Akt26-23 KC (designed binder)
chain 1: AHKVVPQRQMRHAYSRYGSGKC
chain 2: FRGWAHIFFGPHVIYRGGSG
modifications: also: bond at chain A 21 to a chain's C-terminus
notes: Mutant peptide on a lysine scaffold

Kd (AKT1 [5]): ~10 nM
B6: m6-Akt26-23 KC (designed binder)
chain 1: AWKVVPQRWIRYAYNRYGSGKC
chain 2: FRGWAHIFFGPHVIYRGGSG
modifications: also: bond at chain A 21 to a chain's C-terminus
notes: as for B4

binding result (AKT2 [6]): binds
Kd (AKT1 [7]): 4.9 nM
Kd (AKT1 [8]): 1.49 nM
binding result (AKT3 [9]): binds
koff (AKT1 [10]): 0.000295 s⁻¹
B7: lead synbody (Akt26 and Akt23 on a lysine linker, second lysine with biotin) (designed binder)
chain 1: AHKVVPQRQIRHAYNRYGSGKK
chain 2: FRGWAHIFFGPHVIYRGGSG
modifications: not fully specified (some residues); also: bond at chain A 21 to a chain's C-terminus
notes: also called the synbody; first generation synbody

Kd (AKT1 [5]): 8 nM
B8: m5-Akt26-23 KC (designed binder)
chain 1: AWKVVPQRWIRHAYNRYGSGKC
chain 2: FRGWAHIFFGPHVIYRGGSG
modifications: also: bond at chain A 21 to a chain's C-terminus
notes: as for B4

Kd (AKT1 [5]): 5 nM
B9: m2-Akt26-23 KC (designed binder)
chain 1: AHKVVYQRQIRFAYNRYGSGKC
chain 2: FRGWAHIFFGPHVIYRGGSG
modifications: also: bond at chain A 21 to a chain's C-terminus
notes: as for B4
